Assays:
[1] = target: HLA-B*18:01; assay: IEDB peptide-MHC binding, purified MHC/competitive/radioactivity; filed as Kd, often an IC50 or EC50 that approximates it; ≥ and ≤ were set here for values at or beyond the usual limits of such assays
[2] = target: HLA-B*40:01; assay: as above
[3] = target: HLA-B*40:02; assay: as above
[4] = target: HLA-B*44:02; assay: as above
[5] = target: HLA-B*44:03; assay: as above
[6] = target: HLA-B*45:01; assay: as above
[7] = target: HLA-A*02:02; assay: as above
[8] = target: HLA-A*02:03; assay: as above
[9] = target: HLA-A*02:06; assay: as above
[10] = target: HLA-A*68:02; assay: as above
[11] = target: HLA-A*02:01; assay: as above; conditions: source organism: Vaccinia virus WR
[12] = target: HLA-A*03:01; assay: as above; conditions: source organism: Vaccinia virus WR
[13] = target: HLA-A*11:01; assay: as above; conditions: source organism: Vaccinia virus WR
[14] = target: HLA-A*31:01; assay: as above; conditions: source organism: Vaccinia virus WR
[15] = target: HLA-A*33:01; assay: as above; conditions: source organism: Vaccinia virus WR
[16] = target: HLA-A*68:01; assay: as above; conditions: source organism: Vaccinia virus WR
[17] = target: HLA-B*07:02; assay: as above; conditions: source organism: Vaccinia virus WR
[18] = target: HLA-B*35:01; assay: as above; conditions: source organism: Vaccinia virus WR
[19] = target: HLA-B*51:01; assay: as above; conditions: source organism: Vaccinia virus WR
[20] = target: HLA-B*53:01; assay: as above; conditions: source organism: Vaccinia virus WR
[21] = target: HLA-B*54:01; assay: as above; conditions: source organism: Vaccinia virus WR
[22] = target: HLA-A*01:01; assay: IEDB peptide-MHC binding, purified MHC/direct/fluorescence; filed as Kd, often an IC50 or EC50 that approximates it; ≥ and ≤ were set here for values at or beyond the usual limits of such assays; conditions: source organism: Canis lupus familiaris
[23] = target: HLA-A*02:01; assay: IEDB peptide-MHC binding, purified MHC/competitive/fluorescence; filed as Kd, often an IC50 or EC50 that approximates it; ≥ and ≤ were set here for values at or beyond the usual limits of such assays; conditions: source organism: Homo sapiens
[24] = target: HLA-A*26:01; assay: as above; conditions: source organism: Homo sapiens
[25] = target: HLA-A*69:01; assay: as above; conditions: source organism: Homo sapiens
[26] = target: HLA-B*15:01; assay: as above; conditions: source organism: Homo sapiens
[27] = target: HLA-B*27:03; assay: as above; conditions: source organism: Homo sapiens
[28] = target: HLA-B*39:01; assay: as above; conditions: source organism: Homo sapiens
[29] = target: HLA-B*46:01; assay: as above; conditions: source organism: Homo sapiens
[30] = target: HLA-B*51:01; assay: as above; conditions: source organism: Homo sapiens
[31] = target: HLA-B*57:01; assay: as above; conditions: source organism: Homo sapiens
[32] = source organism: Lymphocytic choriomeningitis virus (strain Armstrong)
[33] = source organism: Lassa virus Josiah
[34] = source organism: Dengue virus 1 Brazil/97-11/1997
[35] = source organism: SARS coronavirus Tor2
[36] = source organism: Mammarenavirus lassaense
[37] = source organism: Vaccinia virus WR
[38] = source organism: Mammarenavirus juninense

SENDWFSCM
Kd [1, 32]: 185 nM
Kd [2, 32]: 1400 nM
Kd [3, 32]: 164 nM
Kd [4, 32]: 21.1 nM
Kd [5, 32]: 22.2 nM
Kd [6, 32]: 117 nM

YLISIFLHLV
Kd [7, 33]: 2.73 nM
Kd [8, 33]: 1.72 nM
Kd [9, 33]: 8.6 nM
Kd [10, 33]: 167 nM

LTMKEKSWLV
Kd [9, 34]: 73.8 nM
Kd [10, 34]: 250 nM

TSIGLICVIA
Kd ([10]; source organism: Dengue virus 3 Martinique/1243/1999): 35.5 nM

TEVMPVSMA
Kd [1, 35]: 11100 nM
Kd [2, 35]: 15400 nM
Kd [3, 35]: 79.7 nM
Kd [4, 35]: 6840 nM
Kd [5, 35]: 3850 nM
Kd [6, 35]: 182 nM

MTTIGIVLL
Kd ([10]; source organism: Dengue virus 2 Peru/IQT2913/1996): 50.1 nM

HDFGIPTPS
Kd [1, 36]: 18200 nM
Kd [2, 36]: 13700 nM
Kd [3, 36]: 76.6 nM
Kd [4, 36]: ≥ 67100 nM
Kd [5, 36]: ≥ 78100 nM
Kd [6, 36]: 1460 nM

CTFMIITSTK
Kd [11]: 1860 nM
Kd [7, 37]: 8140 nM
Kd [8, 37]: 6790 nM
Kd [9, 37]: 13500 nM
Kd [12]: 459 nM
Kd [13]: 1120 nM
Kd [14]: 169 nM
Kd [15]: 1220 nM
Kd [16]: 83.5 nM
Kd [10, 37]: ≥ 37600 nM
Kd [17]: 3050 nM
Kd [18]: ≥ 64700 nM
Kd [19]: 10300 nM
Kd [20]: 1910 nM
Kd [21]: 3260 nM

MEKLKALVA
Kd [1, 35]: 5490 nM
Kd [2, 35]: 152 nM
Kd [3, 35]: 176 nM
Kd [4, 35]: 568 nM
Kd [5, 35]: 277 nM
Kd [6, 35]: 24.1 nM

GEILLLEWLA
Kd [1, 35]: 4670 nM
Kd [2, 35]: 20.3 nM
Kd [3, 35]: 16400 nM
Kd [4, 35]: 610 nM
Kd [5, 35]: 110 nM
Kd [6, 35]: 17.2 nM

PDYKRPGVS
Kd [1, 36]: ≥ 77500 nM
Kd [2, 36]: ≥ 33800 nM
Kd [3, 36]: 17600 nM
Kd [4, 36]: ≥ 77900 nM
Kd [5, 36]: ≥ 54300 nM
Kd [6, 36]: ≥ 77700 nM

PELELNVDAM
Kd [1, 38]: 367 nM
Kd [2, 38]: ≥ 69500 nM
Kd [3, 38]: 796 nM
Kd [4, 38]: ≥ 70200 nM
Kd [5, 38]: ≥ 70100 nM
Kd [6, 38]: ≥ 70000 nM

GTEYRLTLY
Kd [22]: 0.8 nM
Kd [23]: ≥ 20000 nM
Kd [24]: ≥ 20000 nM
Kd [25]: ≥ 20000 nM
Kd [26]: ≥ 20000 nM
Kd [27]: ≥ 20000 nM
Kd [28]: ≥ 20000 nM
Kd [29]: ≥ 20000 nM
Kd [30]: ≥ 20000 nM
Kd [31]: ≥ 20000 nM

Source: the Immune Epitope Database (IEDB)
